T1: GFP-p19^Arf (Mus musculus, UniProt Q64364)
T1 construct: expressed in transfected cells; host or cells: NIH 3T3 Arf-/- cells
T1 sequence (Q64364 1-169): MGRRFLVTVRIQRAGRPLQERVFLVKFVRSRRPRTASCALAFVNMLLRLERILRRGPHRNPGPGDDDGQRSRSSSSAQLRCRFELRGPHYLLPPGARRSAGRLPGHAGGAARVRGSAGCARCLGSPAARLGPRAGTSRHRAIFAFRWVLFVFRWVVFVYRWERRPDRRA

T2: mArfN37 (Mus musculus, UniProt Q64364)
T2 construct: mouse p19^Arf corresponding to residues 1-37 (mArfN37); made in house; host or cells: E. coli BL21(DE3) (purified 'in a similar manner' to the Hdm2 fragments)
T2 sequence (Q64364 1-37 limits assumed): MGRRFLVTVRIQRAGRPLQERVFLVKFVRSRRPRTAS

B1: Hdm2 277-350: Texas Red labeled Hdm2 deletion construct containing residues 277-350 (protein)
chain: QVTVYQAGESDTDSFEEDPEISLADYWKCTSCNEMNPPLPSHCNRCWALRENWLPEDKGKDKGEISEKAKLENS
B2: Hdm2 210-275: fragment of Hdm2 corresponding to residues 210-275 of SEQ ID NO:8 (protein, listed as Homo sapiens)
chain: SSSSESTGTPSNPDLDAGVSEHSGDWLDQDSVSDQFSVEFEVESLDSEDYSLSEEGQELSDEDDEV

Legend:
GFP-p19^Arf = biological target: T1, GFP-p19^Arf; assay: Microinjection and live cell imaging of Texas Red labeled Hdm2 constructs in NIH 3T3 cells lacking Arf; assay type: cell-based; conditions: transfected with GFP-p19^Arf
Experimental: Fluorescent labeling. Proteins for fluorescence microimaging studies were covalently modified using an amine-reactive, sulfosuccinimidyl ester of TEXAS RED® (C31H29S2N2O6Cl1) (Molecular Probes, Inc., Cat. # C-1171). In brief, purified Hdm2-derived proteins were dialyzed into 100 mM sodium bicarbonate buffer, pH 8.3 at 2-4 mg/ml. The Texas Red™ dye was dissolved in dimethylsulfoxide at 10 mg/ml. Protein and dye 3:1 (vol:vol) were reacted for 1 hour at room temperature followed by purification using size-exclusion chromatography (NAP 5 G-25 columns, Amersham Pharmacia Biotech, Inc.). […]
Cell culture and microinjection. […] GFP-Arf positive cells were then located and co-injected with TEXAS RED® (C31H29S2N2O6C1 labeled Hdm2 polypeptides (2 mg/ml in 20 mM Tris-HCl, 100 mM NaCl, pH 7.0) using a Micromanipulator 5171/Transjector 5246 (Eppendorf, AG) in media supplemented with 10 mM HEPES, pH 7.2 to buffer cell media during injection and imaging. Representative cells were imaged over time. An Axiovert 135 TV inverted fluorescence microscope with an automated stage controller (Carl Zeiss, Inc.) and circulating water bath heater (Fisher) was used for both microinjection and imaging. Images were acquired with a Zeiss 40×NA=1.30 oil objective and MicroMax CCD camera (Princeton Instruments Inc.) operated with MetaMorph Version 4.01 imaging software. […]

mArfN37 = biological target: T2, mArfN37; assay: Surface plasmon resonance: Hdm2 fragments and peptides binding to immobilized His-tagged mArfN37; conditions: Hdm2 protein fragments as analyte; no binding to control surface
Experimental: Surface Plasmon Resonance. Binding studies were performed using a Biacore 3000 surface plasmon resonance (SPR) instrument (Biacore, Inc.). A Tetra-His™ Antibody (Qiagen, Inc.; Cat. #34670) was covalently attached to a carboxymethylated gold surface (C-1 chip; Biacore, Inc.). The carboxymethyl groups on the surface were activated with N-ethyl-N′-(3-dimethylaminopropyl) carbodiimide (EDC) and N-hydroxysuccinimide (NHS) and the antibody was attached at pH 7.4 in 20 mM sodium phosphate buffer, 150 mM NaCl (PBS). Reactive sites remaining on the surface were blocked by reaction with ethanolamine. […] Binding was measured by flowing the non-His-tagged analyte through the reference and ligand-containing flow cells in sequence. […] Changes in the SPR response due to solvent differences and the injection process were monitored by injection of HBS-N buffer alone. […]
Small segments of Arf and Hdm2 participate in Arf/Hdm2 interactions. […] However, because mArfN37 is a relatively small polypeptide, it was determined whether it could bind a correspondingly small segment of Hdm2. To test this hypothesis and to monitor Arf/Hdm2 binding reactions quantitatively, Hdm2 constructs were prepared spanning amino acids 210-304 of SEQ ID NO:8 and 210-275 of SEQ ID NO:8 and then it was determined whether they could bind mArfN37 using surface plasmon resonance (SPR). […]

Molecule	localization after nuclear microinjection in the presence of GFP-p19^Arf (GFP-p19^Arf)	binding of Hdm2 fragment to His-tagged mArfN37 immobilized on SPR biosensor surface (mArfN37)
B1	localized in the nucleoplasm rather than in nucleoli	
B2	nucleolar localization	bind tightly

Reference: US7704703B2, “Arf and Hdm2 interaction domains and the methods of use thereof” (St. Jude Children's Research Hospital, Inc., priority 2002, dated 2010)
